Test results reported in US20050048070A1 (published 2005).

How the values were obtained:
ovalbumin = target: T1, ovalbumin (UniProt P01012 2-386); test: ELISA on coated antigens (data not shown)
T1 construct: Irrelevant antigen in the ELISA
T1 sequence (looked up): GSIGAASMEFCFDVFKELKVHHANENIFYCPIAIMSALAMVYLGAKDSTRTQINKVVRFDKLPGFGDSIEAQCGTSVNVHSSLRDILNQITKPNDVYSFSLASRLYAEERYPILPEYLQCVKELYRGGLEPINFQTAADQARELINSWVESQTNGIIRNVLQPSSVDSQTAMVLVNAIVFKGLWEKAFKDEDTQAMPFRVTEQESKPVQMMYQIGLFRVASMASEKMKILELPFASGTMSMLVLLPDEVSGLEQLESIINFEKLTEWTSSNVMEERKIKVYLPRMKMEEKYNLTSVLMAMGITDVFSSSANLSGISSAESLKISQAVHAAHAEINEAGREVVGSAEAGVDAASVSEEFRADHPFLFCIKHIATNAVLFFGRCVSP

bovine serum albumin = target: T2, bovine serum albumin (bovine, UniProt P02769 25-607); test: ELISA on coated antigens (data not shown)
T2 construct: Irrelevant antigen in the ELISA; also called BSA

[1] = target: T3, intact K8, native (band 1 of cytokeratin purified from colon cancer tissue; K8 in fixed cancer cells) (human, UniProt P05787 2-483, N-terminally blocked); test: strips of a PVDF blot of SDS-PAGE-separated cytokeratin purified from colon cancer tissue
T3 construct: Natural protein, no tag; also called normal K8; cytokeratin 8
T3 chain: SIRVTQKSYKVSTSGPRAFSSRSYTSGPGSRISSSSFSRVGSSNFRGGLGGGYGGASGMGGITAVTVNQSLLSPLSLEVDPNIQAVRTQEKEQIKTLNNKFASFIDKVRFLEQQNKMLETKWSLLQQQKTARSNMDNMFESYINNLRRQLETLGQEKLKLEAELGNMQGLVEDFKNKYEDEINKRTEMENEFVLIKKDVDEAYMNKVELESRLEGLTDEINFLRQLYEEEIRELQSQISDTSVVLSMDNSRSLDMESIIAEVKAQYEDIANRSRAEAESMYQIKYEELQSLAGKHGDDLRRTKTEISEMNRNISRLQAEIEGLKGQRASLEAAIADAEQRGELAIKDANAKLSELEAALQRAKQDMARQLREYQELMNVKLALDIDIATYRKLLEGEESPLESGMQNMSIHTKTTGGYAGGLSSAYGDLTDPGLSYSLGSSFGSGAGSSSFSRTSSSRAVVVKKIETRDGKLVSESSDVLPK

[2] = target: T4, intact K18, native (band 3 of cytokeratin purified from colon cancer tissue; K18 in fixed cancer cells) (human, UniProt P05783 2-430, acetylated serine at its N-terminus); test: as above
T4 construct: Natural protein, no tag; also called normal K18; cytokeratin 18
T4 sequence: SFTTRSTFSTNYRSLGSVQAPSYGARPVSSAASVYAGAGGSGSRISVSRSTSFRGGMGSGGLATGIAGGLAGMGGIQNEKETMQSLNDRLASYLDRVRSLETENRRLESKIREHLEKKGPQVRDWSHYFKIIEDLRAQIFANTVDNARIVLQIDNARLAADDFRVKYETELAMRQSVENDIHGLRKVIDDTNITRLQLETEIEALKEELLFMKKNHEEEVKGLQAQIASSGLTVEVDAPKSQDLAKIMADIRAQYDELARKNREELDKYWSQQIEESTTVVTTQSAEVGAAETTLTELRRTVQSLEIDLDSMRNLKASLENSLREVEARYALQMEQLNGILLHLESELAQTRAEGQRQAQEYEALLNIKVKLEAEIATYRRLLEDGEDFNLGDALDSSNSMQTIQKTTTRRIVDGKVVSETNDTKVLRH

[3] = target: T5, K8(1-85)/K18(1-187) heterotypic complex (human, UniProt P05787 2-86; P05783 2-188); test: heterotypic association assay: blotted K8 proteins incubated with purified K18(1-187), then stained with COU-1
T5 construct: Heterotypic complex of two GST fusion proteins; not shown: glutathione S-transferase (GST) fusion partner, modified pGEX-2T vector
T5 chain 1: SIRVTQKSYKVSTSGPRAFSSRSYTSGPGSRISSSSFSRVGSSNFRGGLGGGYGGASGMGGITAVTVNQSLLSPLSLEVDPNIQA
T5 chain 2: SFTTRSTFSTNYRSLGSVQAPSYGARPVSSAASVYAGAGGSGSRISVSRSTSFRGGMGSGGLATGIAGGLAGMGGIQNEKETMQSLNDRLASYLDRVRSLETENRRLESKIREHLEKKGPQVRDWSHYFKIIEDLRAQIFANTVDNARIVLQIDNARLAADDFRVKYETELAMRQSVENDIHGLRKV

T2 sequence (P02769 25-607 limits assumed): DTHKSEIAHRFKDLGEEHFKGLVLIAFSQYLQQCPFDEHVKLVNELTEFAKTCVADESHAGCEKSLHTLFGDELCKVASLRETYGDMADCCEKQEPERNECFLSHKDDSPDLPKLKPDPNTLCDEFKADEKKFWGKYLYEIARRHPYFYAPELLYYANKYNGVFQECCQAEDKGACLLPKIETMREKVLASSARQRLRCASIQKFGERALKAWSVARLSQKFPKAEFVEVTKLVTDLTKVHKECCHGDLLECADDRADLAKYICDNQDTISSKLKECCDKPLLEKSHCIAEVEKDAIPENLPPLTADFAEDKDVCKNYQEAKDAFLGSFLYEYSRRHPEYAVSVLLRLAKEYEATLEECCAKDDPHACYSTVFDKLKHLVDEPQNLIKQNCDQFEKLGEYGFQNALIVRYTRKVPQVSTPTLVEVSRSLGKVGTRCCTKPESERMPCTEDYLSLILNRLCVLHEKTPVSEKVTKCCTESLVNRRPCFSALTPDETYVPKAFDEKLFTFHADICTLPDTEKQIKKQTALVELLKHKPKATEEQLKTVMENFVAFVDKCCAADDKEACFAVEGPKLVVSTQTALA

B1: human monoclonal IgM antibody COU-1 (antibody, V domains shown)
VH: GAEVKKPGASVKVSCKASDYTFSSYYMHWVRQAPGQGLEWMGIINPSGGSTSYAQKFQGRVTMTRDTSTNTVYMELSSLRSEDTAVYYCARDQVVVAATLSNYGMDVWGQGTTVTVSS
VL: ELTQSPGTLSLSPGERATLSCRASQSVSSSYLAWYQQKPGQAPRLLIYDASNRATGIPARFSGSGSGTDFTLTISSLEPEDFAVYYCQQGTNWGIAFGQGTRLDIKR
notes: Human IgM with kappa light chain, secreted by hybridoma B9165 (ECACC 87040201), purified from culture supernatant; also called HMab COU-1; HuMab COU-1
binding result (ovalbumin): no binding | binding result (bovine serum albumin): no binding | binding result [1]: no binding (tested: 5 µg/ml COU-1 (P-0279)) | binding result [2]: no binding (tested: 5 µg/ml COU-1 (P-0279)) | binding result [3]: no binding (tested: 5 µg/ml COU-1 (P-0285))
